B1: Pistol ribozyme (parent)
chain: GGGUCGUUGUUCCAUAAUCGCGUGGAUAUGGCACGCAAGUUUCUACCGGGCACCGUAAAUGUCCGACUGGAGCCGUUCGGGCGGCUAUAAACAGACCUCAGGCCCGAAGCGUGGCGGCACCUGCCGCCGGUGGUAAAAAAGAUCGGAAGAGCACACGUCU

Variants of: B1
Experiment: aptazyme ON/OFF ratio, guanine; higher = stronger switching; co-transcriptional cleavage with and without guanine

Variant	aptazyme ON/OFF ratio
GGGUCGGCUCAUAAUAAUCGCGUGGAUAUGGCACGCAAGUUUCUACCGGGCACCGUAAAUGUCCGACUGGAGCCGUUCGGGCGGCUAUAAACAGACCUCAGGCCCGAAGCGUGGCGGCACCUGCCGCCGGUGGUAAAAAAGAUCGGAAGAGCACACGUCU	1.72
GGGUCGGCUCAUGAUAAUCGCGUGGAUAUGGCACGCAAGUUUCUACCGGGCACCGUAAAUGUCCGACUGGAGCCGUUCGGGCGGCUAUAAACAGACCUCAGGCCCGAAGCGUGGCGGCACCUGCCGCCGGUGGUAAAAAAGAUCGGAAGAGCACACGUCU	1.39
GGGUCGGCUCAUUAUAAUCGCGUGGAUAUGGCACGCAAGUUUCUACCGGGCACCGUAAAUGUCCGACUGGAGCCGUUCGGGCGGCUAUAAACAGACCUCAGGCCCGAAGCGUGGCGGCACCUGCCGCCGGUGGUAAAAAAGAUCGGAAGAGCACACGUCU	1.9
GGGUCGGCUCAGUAUAAUCGCGUGGAUAUGGCACGCAAGUUUCUACCGGGCACCGUAAAUGUCCGACUGGAGCCGUUCGGGCGGCUAUAAACAGACCUCAGGCCCGAAGCGUGGCGGCACCUGCCGCCGGUGGUAAAAAAGAUCGGAAGAGCACACGUCU	1.2
GGGUCGGCUCAGGAUAAUCGCGUGGAUAUGGCACGCAAGUUUCUACCGGGCACCGUAAAUGUCCGACUGGAGCCGUUCGGGCGGCUAUAAACAGACCUCAGGCCCGAAGCGUGGCGGCACCUGCCGCCGGUGGUAAAAAAGAUCGGAAGAGCACACGUCU	1.31
GGGUCGGCUCAGAAUAAUCGCGUGGAUAUGGCACGCAAGUUUCUACCGGGCACCGUAAAUGUCCGACUGGAGCCGUUCGGGCGGCUAUAAACAGACCUCAGGCCCGAAGCGUGGCGGCACCUGCCGCCGGUGGUAAAAAAGAUCGGAAGAGCACACGUCU	1.39
GGGUCGGCUCACCAUAAUCGCGUGGAUAUGGCACGCAAGUUUCUACCGGGCACCGUAAAUGUCCGACUGGAGCCGUUCGGGCGGCUAUAAACAGACCUCAGGCCCGAAGCGUGGCGGCACCUGCCGCCGGUGGUAAAAAAGAUCGGAAGAGCACACGUCU	3.02
GGGUCGGCUCAAGAUAAUCGCGUGGAUAUGGCACGCAAGUUUCUACCGGGCACCGUAAAUGUCCGACUGGAGCCGUUCGGGCGGCUAUAAACAGACCUCAGGCCCGAAGCGUGGCGGCACCUGCCGCCGGUGGUAAAAAAGAUCGGAAGAGCACACGUCU	1.31
GGGUCGGCUCAAAAUAAUCGCGUGGAUAUGGCACGCAAGUUUCUACCGGGCACCGUAAAUGUCCGACUGGAGCCGUUCGGGCGGCUAUAAACAGACCUCAGGCCCGAAGCGUGGCGGCACCUGCCGCCGGUGGUAAAAAAGAUCGGAAGAGCACACGUCU	1.52
GGGUCGGCUCAAUAUAAUCGCGUGGAUAUGGCACGCAAGUUUCUACCGGGCACCGUAAAUGUCCGACUGGAGCCGUUCGGGCGGCUAUAAACAGACCUCAGGCCCGAAGCGUGGCGGCACCUGCCGCCGGUGGUAAAAAAGAUCGGAAGAGCACACGUCU	2.1
GGGUCGGCUCAACAUAAUCGCGUGGAUAUGGCACGCAAGUUUCUACCGGGCACCGUAAAUGUCCGACUGGAGCCGUUCGGGCGGCUAUAAACAGACCUCAGGCCCGAAGCGUGGCGGCACCUGCCGCCGGUGGUAAAAAAGAUCGGAAGAGCACACGUCU	2.7
GGGUCGGCUCAGCAUAAUCGCGUGGAUAUGGCACGCAAGUUUCUACCGGGCACCGUAAAUGUCCGACUGGAGCCGUUCGGGCGGCUAUAAACAGACCUCAGGCCCGAAGCGUGGCGGCACCUGCCGCCGGUGGUAAAAAAGAUCGGAAGAGCACACGUCU	1.98
GGGUCGGCUCAUCAUAAUCGCGUGGAUAUGGCACGCAAGUUUCUACCGGGCACCGUAAAUGUCCGACUGGAGCCGUUCGGGCGGCUAUAAACAGACCUCAGGCCCGAAGCGUGGCGGCACCUGCCGCCGGUGGUAAAAAAGAUCGGAAGAGCACACGUCU	2.96
GGGUCGGCUCUCUAUAAUCGCGUGGAUAUGGCACGCAAGUUUCUACCGGGCACCGUAAAUGUCCGACUGGAGCCGUUCGGGCGGCUAUAAACAGACCUCAGGCCCGAAGCGUGGCGGCACCUGCCGCCGGUGGUAAAAAAGAUCGGAAGAGCACACGUCU	1.47
GGGUCGGCUCUCGAUAAUCGCGUGGAUAUGGCACGCAAGUUUCUACCGGGCACCGUAAAUGUCCGACUGGAGCCGUUCGGGCGGCUAUAAACAGACCUCAGGCCCGAAGCGUGGCGGCACCUGCCGCCGGUGGUAAAAAAGAUCGGAAGAGCACACGUCU	1.12
GGGUCGGCUCACGAUAAUCGCGUGGAUAUGGCACGCAAGUUUCUACCGGGCACCGUAAAUGUCCGACUGGAGCCGUUCGGGCGGCUAUAAACAGACCUCAGGCCCGAAGCGUGGCGGCACCUGCCGCCGGUGGUAAAAAAGAUCGGAAGAGCACACGUCU	1.06
GGGUCGGCUCACUAUAAUCGCGUGGAUAUGGCACGCAAGUUUCUACCGGGCACCGUAAAUGUCCGACUGGAGCCGUUCGGGCGGCUAUAAACAGACCUCAGGCCCGAAGCGUGGCGGCACCUGCCGCCGGUGGUAAAAAAGAUCGGAAGAGCACACGUCU	1.79
GGGUCGGCUCACAAUAAUCGCGUGGAUAUGGCACGCAAGUUUCUACCGGGCACCGUAAAUGUCCGACUGGAGCCGUUCGGGCGGCUAUAAACAGACCUCAGGCCCGAAGCGUGGCGGCACCUGCCGCCGGUGGUAAAAAAGAUCGGAAGAGCACACGUCU	1.49

Source: the RNAGym collection of RNA variant scans (doi:10.1021/acssynbio.7b00057)
